Target: T1, DME (MBP-Δ537DME, wild-type glycosylase domain) (UniProt Q8LK56)
T1 sequence: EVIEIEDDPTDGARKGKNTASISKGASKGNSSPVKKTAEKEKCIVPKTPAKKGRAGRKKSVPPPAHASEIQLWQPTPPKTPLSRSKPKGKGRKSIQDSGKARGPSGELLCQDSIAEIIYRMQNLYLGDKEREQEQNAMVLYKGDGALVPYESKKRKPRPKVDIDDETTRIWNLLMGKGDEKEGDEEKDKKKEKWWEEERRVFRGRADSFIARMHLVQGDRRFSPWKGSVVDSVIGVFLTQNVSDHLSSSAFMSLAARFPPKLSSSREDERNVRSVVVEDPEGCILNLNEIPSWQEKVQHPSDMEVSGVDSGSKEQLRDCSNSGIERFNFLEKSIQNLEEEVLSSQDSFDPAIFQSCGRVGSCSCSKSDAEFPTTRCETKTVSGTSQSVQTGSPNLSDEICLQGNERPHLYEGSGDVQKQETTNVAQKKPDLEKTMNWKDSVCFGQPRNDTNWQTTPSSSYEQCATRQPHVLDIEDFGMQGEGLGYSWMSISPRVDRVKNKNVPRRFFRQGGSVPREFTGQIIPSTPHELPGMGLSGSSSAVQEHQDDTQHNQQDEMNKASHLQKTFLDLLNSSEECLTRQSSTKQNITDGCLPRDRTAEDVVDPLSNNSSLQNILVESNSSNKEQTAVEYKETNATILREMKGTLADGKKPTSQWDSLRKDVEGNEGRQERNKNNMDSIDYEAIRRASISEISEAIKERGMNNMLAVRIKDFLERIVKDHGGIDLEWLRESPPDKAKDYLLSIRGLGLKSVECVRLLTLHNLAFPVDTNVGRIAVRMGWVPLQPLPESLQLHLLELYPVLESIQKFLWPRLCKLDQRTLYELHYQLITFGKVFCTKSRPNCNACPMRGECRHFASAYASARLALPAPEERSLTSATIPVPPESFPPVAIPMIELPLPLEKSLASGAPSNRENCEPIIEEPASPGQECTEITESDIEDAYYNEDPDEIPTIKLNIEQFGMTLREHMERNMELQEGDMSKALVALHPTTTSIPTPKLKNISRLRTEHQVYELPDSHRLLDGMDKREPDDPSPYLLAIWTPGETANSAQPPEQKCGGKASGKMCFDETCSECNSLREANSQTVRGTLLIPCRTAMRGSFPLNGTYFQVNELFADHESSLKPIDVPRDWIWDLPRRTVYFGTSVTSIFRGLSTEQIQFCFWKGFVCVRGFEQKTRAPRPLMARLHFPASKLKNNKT
Assay: cleavage_in_vitro
Conditions: abasic at top position 18; 5mC at bottom position 19; rate reduced approximately 10-fold

With “CTATACCTCCTCAACTCABAICGGTCACCGTCTCCGGCG / CGCCGGAGACGGTGACNGGAGTTGAGGAGGTATAG [abasic 18 opposite meC (MEA-1.6F18AP / MEA-1.6R17meC)]” as the sequence, how does the relative cleavage rate (fold rate vs hemimethylated) read?
Its relative cleavage rate (fold rate vs hemimethylated) is 0.1.
